Test results taken from patent US20040022780A1, “Serine protease and topical retinoid compositions useful for treatment of acne vulgarise and production of anti-aging effects” (priority 1997, published 2004).

Columns and labels:
involucrin = test: RT-PCR gene expression in skin, involucrin; type: in vivo, Rhino mouse; conditions: trypsin (0.0001-0.01% (w/v)) daily for five days, dose dependent
Method: Rhino mice of Example 1 were treated daily with trypsin compositions (0% (w/v), 0.0001% (w/v), 0.001% (w/v), and 0.01% (w/v)), as prepared in Example 2, for five days and sacrificed at day eight. The skins of vehicle treated mice and trypsin-treated mice were obtained as described in Example 3, then their total RNAs were extracted using “RNA Stat-60” reagent available from Tel-Test “B,” Inc. as described in Chomczymski, “Single Step Method of RNA Isolation By Acid Guanidinium Thiocyanate-phenol-chloroform extraction,” 162 Anal. Biochem. 156-59 (1987) which is incorporated herein by reference in its entirety. A sufficient amount of RNase-free DNase available from Promega, Corp. under the tradename “RQ1 RNase-free DNase” was then added to the extracted RNA from each mouse such that each respective product contained 200 ng of DNased-RNA using the procedure set forth in “RNase-free DNase” protocol published by Promega, Corp. (May, 1995). […]
The PCR products were then analyzed on 2% agarose/ethidium bromide gels according to methods well-known in the art in order to compare the level of expression of certain genes in skins of trypsin-treated and untreated mice. […]

Rhino mouse skin = test: Delivery of fluorescently labeled trypsin into hair follicles (fluorescent microscopy); type: in vivo
Method: About 100 μL of the topically active trypsin composition of Example 2 was applied to the dorsal side of each Rhino mouse of Example 1. The trypsin used in this composition was fluorescently-labeled with a protein fluorescent labeling kit available from Molecular Probes, Inc. in accordance with its accompanying protocol (1996). At one and four hours after the application of the fluorescent trypsin treatment, a 1 cm by 2 cm sample of the skin surface of each mouse was isolated from each mouse with scissors, fixed with a 10% buffered formalin solution having a pH of about 6.9-7.1 at 25° C. available from Stephens Scientific, then formed into a paraffin block according to well-known procedures, and examined with fluorescent microscopy according to well-known methods.
This Example was repeated on similar Rhino mice of Example 1, with the exception that these mice were treated daily for 5 days with the 1% (w/v) trypsin composition of Example 2 prior to the fluorescent trypsin treatment. Four hours after the application of the fluorescent trypsin treatment on the fifth day, the skins of these mice were analyzed using similar fluorescent microscopic methods. […] This loss of barrier integrity is reflected in the values for transepidermal water loss (“TEWL”) as described in Example 4 and Table 1 herein.

[1] = test system: utriculi of Rhino mouse skin; test: Rhino mouse utriculus size reduction (whole mount epidermis image analysis); type: in vivo; conditions: single trypsin 1% (w/v) treatment, analyzed seven days later

B1: trypsin (protein, UniProt P00760 24-246, looked up)
Serine protease 1: IVGGYTCGANTVPYQVSLNSGYHFCGGSLINSQWVVSAAHCYKSGIQVRLGEDNINVVEGNEQFISASKSIVHPSYNSNTLNNDIMLIKLKSAASLNSRVASISLPTSCASAGTQCLISGWGNTKSSGTSYPDVLKCLKAPILSDSSCKSAYPGQITSNMFCAGYLEGGKDSCQGDSGGPVVCSGKLQGIVSWGSGCAQKNKPGVYTKVCNYVSWIKQTIASN
notes: lyophilyzed trypsin from Sigma-Aldrich, a serine protease, in Hepes buffer mixed with GDL liposomes
- level of involucrin (involucrin): increased
- location of fluorescent labeling in skin (Rhino mouse skin; 1 hour and 4 hours after topical application of about 100 μL fluorescent trypsin composition): almost all of the fluorescent labeling was found within the utriculi and sebaceous glands
- change in delivery route into utriculi and sebaceous glands (Rhino mouse skin; 4 hours after fluorescent trypsin, following 5 days of daily 1% (w/v) trypsin): no major change
- barrier integrity (staining at outer portion of stratum corneum) (Rhino mouse skin; following 5 days of daily 1% (w/v) trypsin): some loss of barrier integrity
- effect on utriculus size reduction of a single treatment [1]: no effect
